Data on one molecule can be found in US20200277361A1 (PROTHENA BIOSCIENCES, published 2020).

Assay [1] addresses recombinant human TTR F87M/L110M (human, UniProt P02766 21-147). Description: SPR, mAb captured on anti-mouse IgG chip, TTR F87M/L110M as analyte.
Assay [2] has as its target T1, pH4.0-treated TTR (human, UniProt P02766 21-147). Description: ELISA, pH4-TTR captured on anti-His coated plate. (An ELISA detects its analyte on a solid surface through an enzyme-linked reagent.)
Assay [3] concerns the target T1, pH4.0-treated TTR. Description: Sandwich ELISA (pH4-TTR).
Assay [4] deals with T1, pH4.0-treated TTR. Description: ELISA on pH4-treated TTR captured on an anti-His coated plate, anti-mouse HRP detection, OD450.

B1: mouse antibody 5A1 (antibody, IgG1, V domains shown)
VH: EVKLVESGGGLVRPGGSLKLSCAASGFTFSNYAMSWVRQTPEKRLEWVASISSGGSTYYPDSVKGRFTISRDNARNILYLQMSSLRSEDTAMYYCVRYYYGQYFDFWGQGTALTVSS
VL: DIVMTQSHKFMSTSVGDRVSITCKASQDVSTTVAWYRQKPGQSPELLIYSASYRCTGVPDRFTGSGSGADFTFTISSVQAEDLAVYYCQQHYSTPLTFGAGTKLELK
notes: also called m5A1; mis-TTR antibody 5A1
As to B1, the values for the Kd (in assay [1]; with pH4.0-treated TTR [2]; in the assay with pH4.0-treated TTR [3]) were 7.68 nM, 23 nM and 21.3 nM, respectively. Further, in assay [1], the koff (commonly the rate constant with which the complex falls apart) was 0.000469 s⁻¹. Besides, in assay [1], the kon – broadly, the second-order rate constant of association – amounted to 61100 M⁻¹ s⁻¹. Further, in the assay with pH4.0-treated TTR [4], the EC50 (read off the curve) (usually the concentration needed to bring the measured effect to its halfway point) was approximately 0.3 µg/mL.
